Substitutions are numbered along the chain they refer to. In names and notes the source's numbering stands.
Key:
LovD = molecular target: T1, LovD (Aspergillus terreus, UniProt Q9Y7D1); test: LovD transacylation of monacolin J with acyl-thioesters / acyl-CoAs (conversion by HPLC); assay type: biochemical; details: 10 μM LovD, 1 mM monacolin J, 4 mM acyl-thioester, 50 mM HEPES, pH 7.9, 25° C., 10 hours; HPLC 238 nm
T1 construct: made in house; host or cells: E. coli BL21(DE3)/pAW31
Protocol: Assays were performed with 1 mM monacolin J, 4 mM acyl-CoA and 10 uM LovD for 10 hours.

Neurospora crassa = test: Agar diffusion growth inhibition of Neurospora crassa by statins
Protocol: N. crassa was grown on SDA slants for 10 days and spores were harvested with 1% Tween-80. 100 ml of molten SDA was seeded with 0.3-0.5×10^8 spores and poured into a 230×230 mm plate. Colonies from mutation library were cultured in 96 well plates containing 250 μl LB medium (with 35 mg/L kanamycin). The cells were grown at 37° C. to saturation and transferred to duplicated plates. Protein expression was induced with 0.1 mM IPTG at OD600 of 0.5 and the expression was performed at 25° C. for 16 h. 5 mM MJA and 10 mM DMB-SMMP were added to initiate the reaction. After a certain reaction time (45 mins to 4 hours depending on the activity of the parent), cells were removed with centrifugation (2,000 g, 4° C., 5 min). The amount of supernatant spotted on the SDA plate was typically 1-3 μl. The plates were incubated at 30° C. for 16˜18 hours.
N. crassa was grown on SDA slants for 10 days and spores were harvested with 1% Tween-80. 100 ml of molten SDA was seeded with 0.3-0.5×10^8 spores and poured into a 230×230 mm plate. Colonies from mutation library were cultured in 96 well plates containing 250 μl LB medium (with 35 mg/L kanamycin). The cells were grown at 37° C. to saturation and transferred to duplicated plates. Protein expression was induced with 0.1 mM IPTG at OD600 of 0.5 and the expression was performed at 25° C. for 16 h. 5 mM MJA and 10 mM DMB-SMMP were added to initiate the reaction. […]

MJ acid and DMB-S-MMP = test: Kinetic assay of LovD wild type and mutants towards MJ acid and DMB-S-MMP; assay type: biochemical
Protocol: Dimethyl sulfoxide (DMSO) was added to a final concentration of 10% to facilitate the solubilization of DMB-S-MMP. To compare the turnover rate of all mutants and the wild type protein, the MJ acid concentration was set at 1 mM and the DMB-S-MMP was set at 2 mM, the protein concentration was fixed at 10 uM, after the reaction was performed at room temperature for 2 hours, the reaction was quenched by adding EA/2% TFA. The organic phase was dried and redissolved in ACN for HPLC analysis.
The concentration of DMB-S-MMP was fixed at 2 mM and MJ acid concentration was varied from 0.25 mM to 2.0 mM. […] For the rest LovD mutant proteins, we only checked the conversion of one time point.
To obtain KM values for MJA and kcat, the DMB-SMMP concentration was fixed at 2 mM, while the concentration of MJA was varied from 0.25 to 5 mM. To obtain KM values for DMB-SMMP and kcat, the MJA concentration was fixed at 2 mM, while the concentration of DMB-SMMP was varied from 0.5 to 5 mM. Dimethyl sulfoxide (DMSO) was added to a final concentration of 10% to facilitate the solubilization of DMB-SMMP. At different time points of the kinetic assay, an aliquot of the reaction mixture was removed, quenched with 1% TFA and extracted with EA containing 1% acetic acid. The organic phase was separated, dried, resolubilized by acetonitrile (ACN) and analyzed by a Beckman Gold HPLC using a reverse phase C18 column (Alltech Apollo 5μ, 150 mm×4.6 mm) and a linear gradient: 60% ACN in water (0.1% trifluoroacetic acid (TFA)) to 95% ACN in water (0.1% TFA) for 10 min, 1 mL/min. Conversion of MJA to SVA was measured by integration of the peaks at 238 nm.

E. coli YT2 = test: Whole-cell biocatalysis activity of LovD G0 and directed-evolution mutants (SVA synthesis); details: 25° C.
Protocol: Wild type LovD and all mutants were cultured in parallel for comparison. A single colony of the freshly transformed YT2 competent cells was used to inoculate a 5 mL LB culture supplemented with 35 mg/L kanamycin. Following overnight growth at 37° C., 100 μl of the culture was inoculated into 50 mL LB medium supplemented with 35 mg/L kanamycin. When OD600 reached 0.4˜0.6, 0.1 mM IPTG was added to the cultures and expression of all LovD variants was performed at 25° C. for 16 hr. To mimic the high density fermentation conditions, the cells were then concentrated 10-fold before addition of substrates. A 10 ml aliquot of each culture was collected by centrifugation (4° C., 2,000 g, 10 min). The cell pellet was gently resuspended in 1 ml of the medium supernatant, followed by addition of 70 μl of MJA (300 mM stock) to a final concentration of 15 mM. The concentrated culture was then divided into seven 200 μl aliquots and 1 μl of pure DMB-SMMP was added to each sample to a final concentration of 20 mM. The small cultures were then shaken at 300 rpm at 25° C. At each time point, a complete extraction of one culture aliquot was performed by adding 10 μl of 20% SDS for cells lysis, followed by extraction with 500 μl ethyl acetate containing 1% trifluoroacetic acid TFA. The organic phase was removed, evaporated, and redissolved in 500 μl acetonitrile for HPLC analysis. The whole-cell activity was determined by fitting the linear regions of the conversion time course plot.
Parent LovD G0 and all mutants were cultured in parallel for comparison. A single colony of the freshly transformed YT2 competent cells was used to inoculate a 5 mL LB culture supplemented with 35 mg/L kanamycin. Following overnight growth at 37° C., 100 μl of the culture was inoculated into 50 mL LB medium supplemented with 35 mg/L kanamycin. When OD600 reached 0.4˜0.6, 0.1 mM IPTG was added to the cultures and expression of all LovD variants was performed at 25° C. for 16 hr. To mimic the high density fermentation conditions, the cells were then concentrated 10-fold before addition of substrates. A 10 ml aliquot of each culture was collected by centrifugation (4° C., 2,000 g, 10 min). The cell pellet was gently resuspended in 1 ml of the medium supernatant, followed by addition of 70 μl of MJA (300 mM stock) to a final concentration of 15 mM. The concentrated culture was then divided into seven 200 μl aliquots and 1 μl of pure DMB-SMMP was added to each sample to a final concentration of 20 mM. The small cultures were then shaken at 300 rpm at 25° C. At each time point, a complete extraction of one culture aliquot was performed by adding 10 μl of 20% SDS for cells lysis, followed by extraction with 500 μl ethyl acetate containing 1% trifluoroacetic acid TFA. The organic phase was removed, evaporated, and redissolved in 500 μl acetonitrile for HPLC analysis. The whole-cell activity was determined by fitting the linear regions of the conversion time course plot.

[1] = Soluble LovD protein expression level (Ni-NTA purification, Bradford assay)
Protocol: Each mutant was transformed into E. coli YT2 strain and selected by Kanamycin (Kan). The transformant was grown in 500 ml LB-Kan media at 37° C. to OD600 0.4˜0.6, then 0.1 mM IPTG was added to induce protein expression at 20° C. for 16 hours. Cells were collected by centrifugation, resuspended in 30 ml Buffer A (50 mM Tris-HCl, pH 8.0, 2 mM 2 mM EDTA), and lysed by sonication. Cell debris and insoluble proteins were removed by centrifugation (16,000 g, 4° C., 1 h). To the cleared lysate, 2 ml of Ni-NTA resin (Qiagen) was added. Each mutant was purified using a step gradient of buffer A with increasing concentration of imidazole. Pure (>95%) LovD proteins were eluted in buffer A containing 250 mM imidazole, and then buffer exchanged into buffer A without imidazole. Glycerol was added to a final concentration of 10%, the proteins were aliquoted, and flash frozen.
All nine mutants and the wild type LovD proteins were purified at the same time and under the same conditions. The proteins were purified from 50 ml LB culture. LovD was eluted in the last fraction which contains 250 mM imidazole. The concentration of the last fraction was determined by Bradford Assay using BSA as the standard.
Each expression plasmid encoding LovD mutant was transformed into E. coli BL21(DE3). The transformant was cultured in 50 mL LB medium containing 35 mg/L Kan at 37° C. to optical density (OD600) value of 0.4˜0.6. Protein expression was induced with 0.1 mM IPTG and the subsequent expression was performed at 25° C. for 16 h. Cells were collected by centrifugation (2,000 g, 4° C., 15 min), resuspended in 7 mL Buffer A (50 mM Tris-HCl, pH 8.0, 2 mM DTT, 2 mM EDTA), and lysed by sonication. Cell debris and insoluble proteins were removed by centrifugation (20,000 g, 4° C., 1 h). To the cleared cell lysate, 0.5 mL of Ni-NTA resin (Qiagen, Valencia, Calif.) was added to each sample. […] The protein concentrations were qualitatively assessed by SDS-PAGE and quantitatively determined by the Bradford protein assay using bovine serum albumin (BSA) as the standard.

T1 sequence (Q9Y7D1 whole entry): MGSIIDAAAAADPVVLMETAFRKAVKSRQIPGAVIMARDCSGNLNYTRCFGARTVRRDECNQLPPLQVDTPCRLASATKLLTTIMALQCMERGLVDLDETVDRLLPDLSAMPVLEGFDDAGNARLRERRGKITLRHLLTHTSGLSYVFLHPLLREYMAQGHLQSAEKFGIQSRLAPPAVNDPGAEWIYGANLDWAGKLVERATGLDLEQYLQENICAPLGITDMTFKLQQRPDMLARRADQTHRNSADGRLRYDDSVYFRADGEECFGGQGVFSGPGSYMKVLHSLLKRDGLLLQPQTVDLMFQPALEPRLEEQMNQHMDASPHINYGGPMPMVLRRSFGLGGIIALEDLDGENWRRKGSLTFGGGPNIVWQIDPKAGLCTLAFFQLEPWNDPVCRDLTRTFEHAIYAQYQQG

CCCC(=O)SCC(=O)OC
Conversion (percent monacolin J converted to the corresponding lovastatin analog) (LovD): 92%, 6.8

C[C@H]1C=C2C=C[C@H](C)[C@H](CC[C@@H](O)C[C@@H](O)CC(=O)O)[C@H]2[C@@H](O)C1 [MJA, monacolin J acid]
quantity needed to inhibit the growth of N. crassa (in words) (Neurospora crassa): hundred milligram quantities

CCC(C)(C)C(=O)O[C@H]1C[C@@H](C)C=C2C=C[C@H](C)[C@H](CC[C@@H](O)C[C@@H](O)CC(=O)O)[C@H]21 [SVA, simvastatin acid]
quantity needed to inhibit the growth of N. crassa (in words) (Neurospora crassa): sub-microgram quantities

COC(=O)CSC(=O)c1ccccc1
Conversion (percent monacolin J converted to the corresponding lovastatin analog) (LovD): 70%, 7.6

CCC(C)(C)C(=O)SCC(=O)OC [drawing 22]
Conversion (percent monacolin J converted to the corresponding lovastatin analog) (LovD): 17%, 8.5

B1: GX12: LovD mutant with six mutations: C40A, C60N, A86V, D12G, G275S and A190T (protein, UniProt Q9Y7D1 1-413, looked up, variant C40A C60N A86V D12G G275S A190T)
Monacolin J acid …: MGSIIDAAAAAGPVVLMETAFRKAVKSRQIPGAVIMARDASGNLNYTRCFGARTVRRDENNQLPPLQVDTPCRLASATKLLTTIMVLQCMERGLVDLDETVDRLLPDLSAMPVLEGFDDAGNARLRERRGKITLRHLLTHTSGLSYVFLHPLLREYMAQGHLQSAEKFGIQSRLAPPAVNDPGAEWIYGTNLDWAGKLVERATGLDLEQYLQENICAPLGITDMTFKLQQRPDMLARRADQTHRNSADGRLRYDDSVYFRADGEECFGGQGVFSSPGSYMKVLHSLLKRDGLLLQPQTVDLMFQPALEPRLEEQMNQHMDASPHINYGGPMPMVLRRSFGLGGIIALEDLDGENWRRKGSLTFGGGPNIVWQIDPKAGLCTLAFFQLEPWNDPVCRDLTRTFEHAIYAQYQQG
improvement of the kcat/Km value compared to wild type enzyme (MJ acid and DMB-S-MMP): 2.83 fold
improvement in whole-cell activity compared to wild type enzyme (E. coli YT2): 7.5 fold
improvement of the soluble expression level compared to wild type enzyme [1]: 2.3 fold

B2: GX27: LovD mutant with eight mutations: C40A, C60N, A86V, D12G, G275S, A190T, H161Y (printed 11161Y) and K26E (protein, UniProt Q9Y7D1 1-413, looked up, variant C40A C60N A86V D12G G275S A190T H161Y K26E)
Monacolin J acid …: B1 Monacolin J acid … with K26E, H161Y
improvement of the kcat/Km value compared to wild type enzyme (MJ acid and DMB-S-MMP): 3.45 fold
improvement in whole-cell activity compared to wild type enzyme (E. coli YT2): 11 fold
improvement of the soluble expression level compared to wild type enzyme [1]: 4 fold

Reference: patent US10689628B2, “Method of making variant LovD polypeptides” (THE REGENTS OF THE UNIVERSITY OF CALIFORNIA, priority 2009, dated 2020)
